The values that follow come from publication PMC5339705, “OGG1-DNA interactions facilitate NF-κB binding to DNA targets”.

One data set deals with OGG1 (UniProt O15527 1-345). As to the kind of experiment: EMSA; OGG1 alone; more complex when NF-kB present; 10 mM Tris-HCl pH 8.0, 5 mM NaCl, 1 mM EDTA, 1 mM DTT, 0.1 mg/ml BSA, 0.1 µg/µl poly(dI-dC) (stated for NE reactions), 10 fmol probe, 10 µl, RT 5-10 min; 6% gel 0.5x TBE 4 °C. The settings on record: protein: commercial; label: 5' biotin on strand 2; blunt. In general terms: Mobility shift assays separate free from complexed probe on a gel.

For the next data set, the target named is p65 (RelA) (UniProt Q04206 1-551). As to the kind of experiment: EMSA; 15 ng p65 (also 7.5 ng series) with OGG1; 10 mM Tris-HCl pH 8.0, 5 mM NaCl, 1 mM EDTA, 1 mM DTT, 0.1 mg/ml BSA, 0.1 µg/µl poly(dI-dC) (stated for NE reactions), 10 fmol probe, 10 µl, RT 5-10 min; 6% gel 0.5x TBE 4 °C. The following applies: protein: commercial; chain copies: 2; label: 5' biotin on strand 2; blunt.

For data set [1], the target named is T1, p50 (NF-kB1) (UniProt P19838 1-433). As to the kind of experiment: EMSA; p50 alone; mildly enhanced by 1 ng OGG1; 10 mM Tris-HCl pH 8.0, 5 mM NaCl, 1 mM EDTA, 1 mM DTT, 0.1 mg/ml BSA, 0.1 µg/µl poly(dI-dC) (stated for NE reactions), 10 fmol probe, 10 µl, RT 5-10 min; 6% gel 0.5x TBE 4 °C. The settings on record: protein: commercial; chain copies: 2; label: 5' biotin on strand 2; blunt.

Data set [2] has as its target T1, p50 (NF-kB1). Kind of data set: EMSA; homodimer formed in p65/p50 mix, no OGG1; from 1 min; 10 mM Tris-HCl pH 8.0, 5 mM NaCl, 1 mM EDTA, 1 mM DTT, 0.1 mg/ml BSA, 0.1 µg/µl poly(dI-dC) (stated for NE reactions), 10 fmol probe, 10 µl, RT 5-10 min; 6% gel 0.5x TBE 4 °C. The following applies: protein: commercial; chain copies: 2; label: 5' biotin on strand 2; blunt.

T1 sequence (P19838 1-433): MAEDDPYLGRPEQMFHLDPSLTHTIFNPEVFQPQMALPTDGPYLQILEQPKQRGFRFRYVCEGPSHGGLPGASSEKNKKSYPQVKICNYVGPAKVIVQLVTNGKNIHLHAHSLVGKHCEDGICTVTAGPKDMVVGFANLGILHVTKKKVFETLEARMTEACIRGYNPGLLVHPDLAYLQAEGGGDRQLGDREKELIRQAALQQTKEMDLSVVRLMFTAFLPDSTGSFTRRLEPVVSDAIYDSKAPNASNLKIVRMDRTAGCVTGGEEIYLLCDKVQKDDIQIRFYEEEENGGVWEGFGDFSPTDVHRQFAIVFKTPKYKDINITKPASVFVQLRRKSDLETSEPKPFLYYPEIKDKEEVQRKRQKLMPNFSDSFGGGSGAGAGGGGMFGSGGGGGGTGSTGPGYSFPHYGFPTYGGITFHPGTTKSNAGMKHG
Chain of OGG1 (O15527 whole entry): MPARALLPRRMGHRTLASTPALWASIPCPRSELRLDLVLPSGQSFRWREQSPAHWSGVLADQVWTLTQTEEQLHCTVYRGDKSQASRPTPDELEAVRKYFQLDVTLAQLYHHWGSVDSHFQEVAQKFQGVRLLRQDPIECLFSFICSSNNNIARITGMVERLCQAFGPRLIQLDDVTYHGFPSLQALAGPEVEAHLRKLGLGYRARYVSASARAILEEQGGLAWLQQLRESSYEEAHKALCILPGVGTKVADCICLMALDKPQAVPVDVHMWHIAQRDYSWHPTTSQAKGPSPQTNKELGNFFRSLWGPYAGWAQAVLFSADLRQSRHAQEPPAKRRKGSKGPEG
Chain of p65 (RelA) (Q04206 whole entry): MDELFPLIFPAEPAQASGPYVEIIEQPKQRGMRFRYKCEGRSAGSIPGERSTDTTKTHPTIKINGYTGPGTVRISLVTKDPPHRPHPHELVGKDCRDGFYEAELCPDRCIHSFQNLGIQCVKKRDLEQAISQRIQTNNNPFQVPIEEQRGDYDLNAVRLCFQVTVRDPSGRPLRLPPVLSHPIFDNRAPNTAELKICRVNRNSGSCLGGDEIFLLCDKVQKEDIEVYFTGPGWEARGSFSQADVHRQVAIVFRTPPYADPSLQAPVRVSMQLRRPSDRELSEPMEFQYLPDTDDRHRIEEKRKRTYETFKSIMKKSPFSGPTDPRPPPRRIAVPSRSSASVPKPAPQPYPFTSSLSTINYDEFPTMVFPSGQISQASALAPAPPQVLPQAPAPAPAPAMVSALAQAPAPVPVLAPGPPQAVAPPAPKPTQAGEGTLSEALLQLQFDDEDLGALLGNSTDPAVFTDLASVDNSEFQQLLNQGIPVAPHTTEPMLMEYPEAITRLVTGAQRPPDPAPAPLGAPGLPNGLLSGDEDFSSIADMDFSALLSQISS

B1: κB2-G6 (dsDNA)
DNA 1: TGAGGGGACCCTGAGCTCAGGGAATTTCCCTGG
DNA 2: CCAGGGAAATTCCCTGAGCTCAGGGTCCCCTCA
modifications: 8-oxoG at strand 2 position 23 (opposite C11 of strand 1)
As for B1, the binding result with OGG1 and with p50 (NF-kB1) [1] was “binds” in each case. Besides, the binding signal with p65 (RelA) was greater than 10 fold vs p65 alone.

B2: κB2-Wt (dsDNA)
DNA 1: B1 DNA 1
DNA 2: B1 DNA 2
In the case of B2, the binding result in the data set with p50 (NF-kB1) [2] was “binds”.
